Legend:
1433g_rat Ywhag [1] = biological target: 1433g_rat Ywhag (UniProt P61983)
1433t_human YWHAQ = 1433t_human YWHAQ (UniProt P27348)
1433z_human YWHAZ = 1433z_human YWHAZ (UniProt P63104)
1433g_rat Ywhag [2] = biological target: 1433g_rat Ywhag (UniProt P61983); remark: listed apart in the source

UniProt P61983, sequence (P61983 whole entry): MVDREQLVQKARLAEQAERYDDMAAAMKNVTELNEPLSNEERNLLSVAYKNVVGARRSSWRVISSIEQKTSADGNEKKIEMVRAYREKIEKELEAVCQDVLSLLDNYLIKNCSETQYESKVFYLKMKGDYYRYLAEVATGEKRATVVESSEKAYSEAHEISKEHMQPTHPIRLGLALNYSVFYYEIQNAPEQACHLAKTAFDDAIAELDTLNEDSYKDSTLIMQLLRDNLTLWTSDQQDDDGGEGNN
UniProt P27348, sequence (P27348 whole entry): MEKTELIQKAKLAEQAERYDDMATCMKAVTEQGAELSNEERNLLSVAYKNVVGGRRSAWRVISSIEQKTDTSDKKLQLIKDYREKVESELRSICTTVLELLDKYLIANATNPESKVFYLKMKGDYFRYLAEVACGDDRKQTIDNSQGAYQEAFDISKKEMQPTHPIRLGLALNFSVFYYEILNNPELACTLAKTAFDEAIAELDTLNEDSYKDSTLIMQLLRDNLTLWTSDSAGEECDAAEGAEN
UniProt P63104, sequence (P63104 whole entry): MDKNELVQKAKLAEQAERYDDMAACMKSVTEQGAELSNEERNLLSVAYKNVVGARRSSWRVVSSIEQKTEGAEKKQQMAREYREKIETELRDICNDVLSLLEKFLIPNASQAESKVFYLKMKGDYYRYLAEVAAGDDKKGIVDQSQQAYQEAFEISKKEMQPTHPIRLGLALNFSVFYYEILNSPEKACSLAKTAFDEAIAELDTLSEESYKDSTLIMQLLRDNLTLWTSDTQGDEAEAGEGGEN

Row | effect of a mutation on the interaction (1433g_rat Ywhag [1]) | effect of a mutation on the interaction (1433t_human YWHAQ) | effect of a mutation on the interaction (1433z_human YWHAZ) | effect of a mutation on the interaction (1433g_rat Ywhag [2]) | Substance
1 | disrupting interaction | disrupting interaction | disrupting interaction |  | Leucine-rich repeat serine/threonine-protein kinase 2 (Homo sapiens), Q5S007 R1441G
2 |  |  |  | disrupting interaction | Leucine-rich repeat serine/threonine-protein kinase 2 (Homo sapiens), Q5S007 S1443A;S1444A
3 |  | disrupting interaction | disrupting interaction | disrupting interaction | Leucine-rich repeat serine/threonine-protein kinase 2 (Homo sapiens), Q5S007 S1444A

From IntAct's records for PubMed 24351927
